According to publication PMC5648539 (Science signaling, 2017):
Substitutions are numbered along the chain they refer to. Each block holds one binder with its values, some of them ahead of it.

Target: wild-type CXCL12 (stromal cell-derived factor-1) (UniProt P48061-2 22-89)
Test: radioligand binding

Kd: 1.45 nM
B1: FLAG-tagged human CXCR4, wild type (receptor, UniProt P61073 1-352, looked up)
chain: MEGISIYTSDNYTEEMGSGDYDSMKEPCFREENANFNKIFLPTIYSIIFLTGIVGNGLVILVMGYQKKLRSMTDKYRLHLSVADLLFVITLPFWAVDAVANWYFGNFLCKAVHVIYTVNLYSSVLILAFISLDRYLAIVHATNSQRPRKLLAEKVVYVGVWIPALLLTIPDFIFANVSEADDRYICDRFYPNDLWVVVFQFQHIMVGLILPGIVILSCYCIIISKLSHSKGHQKRKALKTTVILILAFFACWLPYYIGISIDSFILLEIIKQGCEFENTVHKWISITEALAFFHCCLNPILYAFLGAKFKTSAQHALTSVSRGSSLKILSKGKRGGHSSVSTESESSSFHSS

Kd: 45.7 nM
B2: FLAG-tagged human CXCR4 Ile4Glu/Ile6Glu (receptor, UniProt P61073 1-352, looked up)
chain: B1 chain with I4E, I6E
